Source: paper PMC9440123, “Rtt105 regulates RPA function by configurationally stapling the flexible domains” (Nature Communications, 2022)

Legend:
RPA (RPA70/RPA32/RPA14) [1] = biological target: T1, RPA (RPA70/RPA32/RPA14) (Saccharomyces cerevisiae, UniProt P22336;P26754;P26755 1-621;1-273;1-122); assay: fluorescence anisotropy; ~2 RPA per DNA; EMSA: 25 mM Tris-Cl pH 7.5, 200 mM NaCl, 5 mM MgCl2, 5% glycerol, 0.05% Tween-20, 25 C; anisotropy/FRET: 30 mM HEPES pH 7.8, 100 mM KCl, 6% glycerol, 5 mM MgCl2, 1 mM bME, 23 C (stopped flow 25 C); details: protein: recombinant; copies: 1;1;1
[2] = biological target: T2, RPA (RPA70/RPA32/RPA14);Rtt105 (Saccharomyces cerevisiae;Saccharomyces …, UniProt P22336;P26754;P26755;P40063 1-621;1-273;1-122;1-208, |); assay: SEC; [RPA]2-(dT)70 without Rtt105, plus Rtt105-RPA-(dT)70; EMSA: 25 mM Tris-Cl pH 7.5, 200 mM NaCl, 5 mM MgCl2, 5% glycerol, 0.05% Tween-20, 25 C; anisotropy/FRET: 30 mM HEPES pH 7.8, 100 mM KCl, 6% glycerol, 5 mM MgCl2, 1 mM bME, 23 C (stopped flow 25 C); details: protein: recombinant;recombinant; tags: ;; copies: 1;1;1;1
[3] = biological target: T3, RPA-DBD-D-Cy3;Rtt105-Cy5 (C13S) (Saccharomyces cerevisiae;Saccharomyces …, UniProt P22336;P26754;P26755;P40063 1-621;1-273;1-122;1-208, |C13S); assay: FRET titration; ssDNA-induced Rtt105 release from preformed RPA-Rtt105 (200 nM each); EMSA: 25 mM Tris-Cl pH 7.5, 200 mM NaCl, 5 mM MgCl2, 5% glycerol, 0.05% Tween-20, 25 C; anisotropy/FRET: 30 mM HEPES pH 7.8, 100 mM KCl, 6% glycerol, 5 mM MgCl2, 1 mM bME, 23 C (stopped flow 25 C); details: protein: recombinant;recombinant; tags: Cy3 on DBD-D via 4AZP;Cy5 on Cys12; copies: 1;1;1;1
RPA (RPA70/RPA32/RPA14) [4] = biological target: T1, RPA (RPA70/RPA32/RPA14); assay: fluorescence anisotropy; no Rtt105; 5 mM MgCl2; stoichiometric, apparent Kd; EMSA: 25 mM Tris-Cl pH 7.5, 200 mM NaCl, 5 mM MgCl2, 5% glycerol, 0.05% Tween-20, 25 C; anisotropy/FRET: 30 mM HEPES pH 7.8, 100 mM KCl, 6% glycerol, 5 mM MgCl2, 1 mM bME, 23 C (stopped flow 25 C); details: protein: recombinant; copies: 1;1;1
[5] = biological target: T2, RPA (RPA70/RPA32/RPA14);Rtt105; assay: fluorescence anisotropy; Rtt105 1:1; 5 mM MgCl2; stoichiometric, apparent Kd; EMSA: 25 mM Tris-Cl pH 7.5, 200 mM NaCl, 5 mM MgCl2, 5% glycerol, 0.05% Tween-20, 25 C; anisotropy/FRET: 30 mM HEPES pH 7.8, 100 mM KCl, 6% glycerol, 5 mM MgCl2, 1 mM bME, 23 C (stopped flow 25 C); details: protein: recombinant;recombinant; tags: ;; copies: 1;1;1;1
[6] = biological target: T3, RPA-DBD-D-Cy3;Rtt105-Cy5 (C13S); assay: FRET titration; ssDNA-induced remodeling of preformed RPA-Rtt105 (200 nM each); EMSA: 25 mM Tris-Cl pH 7.5, 200 mM NaCl, 5 mM MgCl2, 5% glycerol, 0.05% Tween-20, 25 C; anisotropy/FRET: 30 mM HEPES pH 7.8, 100 mM KCl, 6% glycerol, 5 mM MgCl2, 1 mM bME, 23 C (stopped flow 25 C); details: protein: recombinant;recombinant; tags: Cy3 on DBD-D via 4AZP;Cy5 on Cys12; copies: 1;1;1;1

T1 sequence (P22336 whole entry, chain 1 of 3): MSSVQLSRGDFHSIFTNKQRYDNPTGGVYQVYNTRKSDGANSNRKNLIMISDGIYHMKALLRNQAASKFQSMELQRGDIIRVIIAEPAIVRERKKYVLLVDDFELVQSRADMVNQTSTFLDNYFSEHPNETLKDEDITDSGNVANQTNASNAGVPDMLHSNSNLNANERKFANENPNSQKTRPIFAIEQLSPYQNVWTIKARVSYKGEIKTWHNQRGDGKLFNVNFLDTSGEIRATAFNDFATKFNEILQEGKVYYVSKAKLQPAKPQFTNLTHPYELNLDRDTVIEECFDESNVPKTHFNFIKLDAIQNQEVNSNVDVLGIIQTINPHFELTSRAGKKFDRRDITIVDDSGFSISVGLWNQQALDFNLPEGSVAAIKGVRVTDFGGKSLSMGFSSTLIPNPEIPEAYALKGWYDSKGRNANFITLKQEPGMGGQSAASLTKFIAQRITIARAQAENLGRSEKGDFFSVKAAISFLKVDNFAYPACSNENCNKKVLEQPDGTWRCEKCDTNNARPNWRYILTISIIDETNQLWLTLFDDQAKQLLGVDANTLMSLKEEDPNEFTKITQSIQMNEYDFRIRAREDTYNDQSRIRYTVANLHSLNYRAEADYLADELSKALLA
T1 sequence (P26754 whole entry, chain 2 of 3): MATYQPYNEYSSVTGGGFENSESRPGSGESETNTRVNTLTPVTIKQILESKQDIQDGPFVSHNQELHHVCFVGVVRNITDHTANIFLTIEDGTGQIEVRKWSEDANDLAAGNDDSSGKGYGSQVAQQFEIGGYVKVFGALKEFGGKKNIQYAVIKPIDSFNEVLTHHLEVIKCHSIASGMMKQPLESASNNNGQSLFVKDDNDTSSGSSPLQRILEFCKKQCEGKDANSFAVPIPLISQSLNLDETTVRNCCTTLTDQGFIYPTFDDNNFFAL
T1 sequence (P26755 whole entry, chain 3 of 3): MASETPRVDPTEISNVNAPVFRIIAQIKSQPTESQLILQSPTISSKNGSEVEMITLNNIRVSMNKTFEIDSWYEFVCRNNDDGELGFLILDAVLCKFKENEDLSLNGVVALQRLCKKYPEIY
T2 sequence (P22336 whole entry, chain 1 of 4): as the sequence (P22336 whole entry, chain 1 of 3) above
T2 sequence (P26754 whole entry, chain 2 of 4): as the sequence (P26754 whole entry, chain 2 of 3) above
T2 sequence (P26755 whole entry, chain 3 of 4): as the sequence (P26755 whole entry, chain 3 of 3) above
T2 sequence (P40063 whole entry, chain 4 of 4): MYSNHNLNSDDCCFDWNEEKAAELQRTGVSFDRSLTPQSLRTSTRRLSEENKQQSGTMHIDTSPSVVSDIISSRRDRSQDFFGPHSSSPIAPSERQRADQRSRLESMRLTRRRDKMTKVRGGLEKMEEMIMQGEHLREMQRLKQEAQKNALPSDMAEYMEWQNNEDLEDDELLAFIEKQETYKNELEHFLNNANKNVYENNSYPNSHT
T3 sequence (P22336 whole entry, chain 1 of 4): as the sequence (P22336 whole entry, chain 1 of 3) above
T3 sequence (P26754 whole entry, chain 2 of 4): as the sequence (P26754 whole entry, chain 2 of 3) above
T3 sequence (P26755 whole entry, chain 3 of 4): as the sequence (P26755 whole entry, chain 3 of 3) above
T3 sequence (P40063 whole entry C13S, chain 4 of 4): as the sequence (P40063 whole entry, chain 4 of 4) above, with C13S counted along it

B1: (dT)70 (ssDNA)
DNA: TTTTTTTTTTTTTTTTTTTTTTTTTTTTTTTTTTTTTTTTTTTTTTTTTTTTTTTTTTTTTTTTTTTTTT
B1 was tested, and the binding result (RPA (RPA70/RPA32/RPA14) [1]) was “binds”, the binding result [2] was “binds” and the “apparent K (half saturation)” value [3] was 42.8 ± 0.37 nM.

B2: FAM-(dT)35 (ssDNA)
DNA: TTTTTTTTTTTTTTTTTTTTTTTTTTTTTTTTTTT
With B2 the Kd (RPA (RPA70/RPA32/RPA14) [4]) was 4 ± 1.3 nM and the Kd [5] was 2.4 ± 1.2 nM.

B3: (dT)35 (ssDNA)
DNA: TTTTTTTTTTTTTTTTTTTTTTTTTTTTTTTTTTT
With B3 the “apparent K (half saturation)” value [6] was 130 ± 10.5 nM.
